Tests used:
[1] = molecular target: T1, wild type (WT) GPIIb/IIIa ectodomain (heterodimer of SEQ ID NOs: 1 and 3) (human, UniProt P08514 32-993; P05106 27-716); assay: apparent monovalent affinity for GP2b3a (SEQ ID: 1 and 3); BLI or SPR, the method of each row is not given
T1 construct: Recombinant purified ectodomain; also called GP2b3a; integrin αIIbβ3

[2] = molecular target: T2, integrin alpha v beta III ectodomain (SEQ ID NOs: 245 and 3) (human, UniProt P06756 31-992; P05106 27-716); assay: BLI, yeast purified Fab on sensor-associated AvB3 (sheet head: SEQ ID NOs: 199, 3; legend: SEQ ID NO 245 and 3); Fab concentration not given
T2 construct: Purified recombinant ectodomain; also called alpha v beta 3

[3] = molecular target: T2, integrin alpha v beta III ectodomain …; assay: BLI, yeast purified Fab on sensor-associated AvB3 (sheet head: SEQ ID NOs: 199, 3; legend: SEQ ID NO 245 and 3)
[4] = molecular target: T3, GPIIb/IIIa on gel-purified human platelets (activated or resting) (human, UniProt P08514 32-1039; P05106 27-788); assay: flow cytometry, Fab on gel-purified human platelets; steeper curve with filled circles, which the legend box labels resting platelets
T3 construct: whole, on cells; Native receptor on platelets; also called integrin αIIbβ3 on platelets; GPIIb/IIIa on platelets

[5] = molecular target: T2, integrin alpha v beta III ectodomain …; assay: BLI, yeast purified Fab on sensor-associated AvB3 (sheet head: SEQ ID NOs: 199, 3; legend: SEQ ID NO 245 and 3); Fab concentration not given; remark: listed apart in the source
[6] = molecular target: T2, integrin alpha v beta III ectodomain …; assay: BLI, monovalent format, yeast purified Fab; drawn table of apparent integrin binding specificity
[7] = molecular target: T2, integrin alpha v beta III ectodomain …; assay: BLI, monovalent format, yeast purified Fab; drawn table of apparent integrin binding specificity (legend of FIGS. 20A-D: alpha V beta III is SEQ ID NO 245 and 3)
[8] = molecular target: T2, integrin alpha v beta III ectodomain …; assay: BLI, yeast purified Fab on sensor-associated AvB3 (sheet head: SEQ ID NOs: 199, 3; legend: SEQ ID NO 245 and 3); remark: listed apart in the source

Binder	Kd [1] [nM]	binding result [6]	further results
BIIB-4-147 (Fab, V domains shown, Tested as Fab made from yeast-expressed, protein A-purified antibody; Only VH and VL are tied to the clone) VH: QVQLVQSGAEVKKPGASVKVSCKASGYTFTSYGISWVRQAPGQGLEWMGWISAYNGNTNYAQKLQGRVTMTTDTSTSTAYMELRSLRSDDTAVYYCARDLEYYDSSGYAYGYFDLWGRGTLVTVSS VL: not shown	5	–	binding result [2]: no binding
BIIB-4-156 (Fab, V domains shown, Tested as Fab made from yeast-expressed, protein A-purified antibody; Only VH and VL are tied to the clone) VH: QVQLVQSGAEVKKPGSSVKVSCKASGGTFSSYAISWVRQAPGQGLEWMGGIIPIFGTANYAQKFQGRVTITADESTSTAYMELSSLRSEDTAVYYCARDTGYYGASLYFDYWGQGTLVTVSS VL: EIVLTQSPATLSLSPGERATLSCRASQSVSSYLAWYQQKPGQAPRLLIYDASNRATGIPARFSGSGSGTDFTLTISSLEPEDFAVYYCQQRSALPRTFGGGTKVEIK	11	–	binding result [3]: binds; EC50 (read off the curve) [4]: ~20 nM
BIIB-4-174 (Fab, V domains shown, Tested as Fab made from yeast-expressed, protein A-purified antibody; Only VH and VL are tied to the clone) VH: QVQLVQSGAEVKKPGSSVKVSCKASGGTFSSYAISWVRQAPGQGLEWMGGIIPIFGTANYAQKFQGRVTITADESTSTAYMELSSLRSEDTAVYYCARGPPSAYGDYVWDIWGQGTMVTVSS VL: not shown	11	–	binding result [5]: no binding
BIIB-4-175 (Fab, V domains shown, Tested as Fab made from yeast-expressed, protein A-purified antibody; Only VH and VL are tied to the clone) VH: EVQLVESGGGLVQPGGSLRLSCAASGFTFSDHHMDWVRQAPGKGLEWVGRTRNKANSYTTEYAASVKGRFTISRDDSKNSLYLQMNSLKTEDTAVYYCARGPPYYADLGMGVWGQGTTVTVSS VL: EIVMTQSPATLSVSPGERATLSCRASQSVSSNLAWYQQKPGQAPRLLIYGASTRATGIPARFSGSGSGTEFTLTISSLQSEDFAVYYCQQFNLYPYTFGGGTKVEIK	15	no binding	–
BIIB-4-204 (Fab, V domains shown, Tested as Fab made from yeast-expressed, protein A-purified antibody; Only VH and VL are tied to the clone) VH: QVQLVQSGAEVKKPGASVKVSCKASGYTFTSYSMHWVRQAPGQGLEWMGIINPSGGSTSYAQKFQGRVTMTRDTSTSTVYMELSSLRSEDTAVYYCARSYDIGYFDLWGRGTLVTVSS VL: EIVLTQSPATLSLSPGERATLSCRASQSVSSYLAWYQQKPGQAPRLLIYDASKRATGIPARFSGSGSGTDFTLTISSLEPEDFAVYYCQQDSFLPFTFGGGTKVEIK	170	–	binding result [7]: binds
BIIB-4-209 (Fab, V domains shown, Tested as Fab made from yeast-expressed, protein A-purified antibody; Only VH and VL are tied to the clone) VH: QVQLVQSGAEVKKPGASVKVSCKASGYTFTSYGISWVRQAPGQGLEWMGWISAYNGNTNYAQKLQGRVTMTTDTSTSTAYMELRSLRSDDTAVYYCARGRPYDHYFDYWGQGTLVTVSS VL: EIVLTQSPATLSLSPGERATLSCRASQSVSSYLAWYQQKPGQAPRLLIYDASNRATGIPARFSGSGSGTDFTLTISSLEPEDFAVYYCQQAYNYPFTFGGGTKVEIK	98	–	binding result [7]: binds
BIIB-4-224 (Fab, V domains shown, Tested as Fab made from yeast-expressed, protein A-purified antibody; Only VH and VL are tied to the clone) VH: QLQLQESGPGLVKPSETLSLTCTVSGGSISSSSYYWGWIRQPPGKGLEWIGSIYYSGSTYYNPSLKSRVTISVDTSKNQFSLKLSSVTAADTAVYYCARDFYSSVYGMDVWGQGTTVTVSS VL: DIQLTQSPSSLSASVGDRVTITCRASQSISSFLNWYQQKPGKAPKLLIYAASSLQSGVPSRFSGSGSGTDFTLTISSLQPEDFATYYCQQSYVHPLTFGGGTKVEIK	200	no binding	–
BIIB-4-309 (Fab, V domains shown, Tested as Fab made from yeast-expressed, protein A-purified antibody; Only VH and VL are tied to the clone; also called Fab BIIB_4_309) VH: QVQLVQSGAEVKKPGASVKVSCKASGYTFTSYGISWVRQAPGQGLEWMGWISAYNGNTNYAQKLQGRVTMTTDTSTSTAYMELRSLRSDDTAVYYCARDGLGSSPWSAFDIWGQGTMVTVSS VL: not shown	25	no binding	–
BIIB-4-311 (Fab, V domains shown, Tested as Fab made from yeast-expressed, protein A-purified antibody; Only VH and VL are tied to the clone) VH: QVQLVQSGAEVKKPGASVKVSCKASGYTFTSYYMHWVRQAPGQGLEWMGVINPSGGSTSYAQKFQGRVTMTRDTSTSTVYMELSSLRSEDTAVYYCARLMSGSSGSWGQGTLVTVSS VL: not shown	64	no binding	–
BIIB-4-318 (Fab, V domains shown, Tested as Fab made from yeast-expressed, protein A-purified antibody; Only VH and VL are tied to the clone) VH: QVQLQESGPGLVKPSETLSLTCAVSGYSISSGYYWGWIRQPPGKGLEWIGSIYHSGSTNYNPSLKSRVTISVDTSKNQFSLKLSSVTAADTAVYYCARSPRWRSTYANWFNPWGQGTLVTVSS VL: DIQLTQSPSSVSASVGDRVTITCRASQGISSWLAWYQQKPGKAPKLLIYGASSLQSGVPSRFSGSGSGTDFTLTISSLQPEDFATYYCQQAAPFPLTFGGGTKVEIK	3	no binding	–
BIIB-4-319 (Fab, V domains shown, Tested as Fab made from yeast-expressed, protein A-purified antibody; Only VH and VL are tied to the clone; also called BBB-4-319) VH: QVQLQESGPGLVKPSETLSLTCAVSGYSISSGYYWAWIRQPPGKGLEWIGSIYHSGSTYYNPSLKSRVTISVDTSKNQFSLKLSSVTAADTAVYYCAREHSSSGQWNVWGQGTMVTVSS VL: EIVLTQSPATLSLSPGERATLSCRASQSVSSYLAWYQQKPGQAPRLLIYDASNRATGIPARFSGSGSGTDFTLTISSLEPEDFAVYYCQQRSFYFTFGGGTKVEIK	–	–	binding result [8]: binds
BIIB-4-317 (Fab, V domains shown, Tested as Fab made from yeast-expressed, protein A-purified antibody; Only VH and VL are tied to the clone) VH: not shown VL: EIVLTQSPATLSLSPGERATLSCRASQSVSSYLAWFQQKPGQAPRLLIYDASNRATGIPARFSGSGSGTDFTLTISSLEPEDFAVYYCQQYSFYPLTFGGGTKVEIK	–	–	binding result [7]: binds

— patent US20220089745A1 (Biogen, published 2022)
